# Assay results from article PMC7235295, “Cytoplasmic TDP43 Binds microRNAs: New Disease Targets in Amyotrophic Lateral Sclerosis”.
# Target: TDP43 (natively folded full-length, ab224788) (UniProt Q13148 1-414)
# Experiment: ELISA (immobilized miRNA titration, EC50); 5 nM TDP43; AC/TG nonspecific oligo 1 ug/ml; EMSA: 14 mM Tris pH 8.0, 35 mM KCl, 14 mM NaCl, 1.4 mM MgCl2, 14% glycerol, 0.7 mM DTT, 30 min RT, 5 nM RNA, gel at 4 C; ELISA: 20 mM HEPES pH 7.5, 150 mM NaCl, 1.5 mM MgCl2, 0.05% Tween 20, 0.5 mM DTT, 1 ug/ml AC/TG oligo, 0.2% BSA, 12 h 4 C
# Details: protein: commercial; label: 3'-biotin; single strand
# TDP43 (natively folded full-length, ab224788), sequence (Q13148 whole entry): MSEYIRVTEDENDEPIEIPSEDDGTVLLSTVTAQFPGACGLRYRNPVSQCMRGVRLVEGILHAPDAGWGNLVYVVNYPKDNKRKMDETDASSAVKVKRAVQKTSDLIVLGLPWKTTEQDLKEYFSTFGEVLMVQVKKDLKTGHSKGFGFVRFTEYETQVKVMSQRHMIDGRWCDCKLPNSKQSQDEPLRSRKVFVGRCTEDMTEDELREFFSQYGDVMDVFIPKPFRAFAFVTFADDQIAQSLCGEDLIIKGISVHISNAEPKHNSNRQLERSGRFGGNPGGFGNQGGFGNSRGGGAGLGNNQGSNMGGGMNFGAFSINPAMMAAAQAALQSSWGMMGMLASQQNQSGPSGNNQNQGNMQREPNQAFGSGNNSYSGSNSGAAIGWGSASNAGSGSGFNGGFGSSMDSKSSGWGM
row,Binder,apparent K (half saturation) [nM]
1,AAUGGCGCCACUAGGGUUGUG (ssRNA) [miR-652-3p],6.41
2,UUCCCUUUGUCAUCCUAUGCCU (ssRNA) [miR-204-5p],37.7
3,UGAGUGUGUGUGUGUGAGUGUGU (ssRNA) [miR-574-5p (ELISA)],2.84
